Results: patent US20250082681A1 (NANJING LEGEND BIOTECH, published 2025)
Positions count from the first letter of the chain named.

T1: recombinant human CLL1 extracellular domain, His-tagged (CLL1-His protein) (human, UniProt Q5QGZ9 65-265)
T1 construct: ECD made by transient expression in HEK293 (293-F) cells and purified by IMAC; also called recombinant human CLL1 protein; ECD of CLL1; not shown: His tag (protein called CLL1-His, purified by IMAC)
T1 sequence: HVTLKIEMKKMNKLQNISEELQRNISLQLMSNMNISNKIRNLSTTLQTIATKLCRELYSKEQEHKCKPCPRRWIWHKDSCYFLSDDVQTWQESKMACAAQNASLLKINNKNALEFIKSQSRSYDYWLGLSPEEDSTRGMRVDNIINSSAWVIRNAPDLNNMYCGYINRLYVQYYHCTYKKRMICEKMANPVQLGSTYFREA

B1: AS141567 (antibody, V domains shown)
VH: QVQLVQSGGGLVQPGGSLRLSCAASGFTFSSYAMSWVRQAPGKGLEWVSAINSGDSSTYYVDSVKGRFTISRDNAKNTLYLQLNSLKTEDTAMYYCAKDRIPGPYSDGGGFLGIVFGYWGQGTQVTISS
VL: SSELTQPSAVSVSLGQTARITCQGGNFGKYYAHWYQQKPGQAPVLVIYEDSERPSGIPERFSGSSSGDTATLTISGAQAEDEGDYYCHSAESSAAVFGGGTHLTVL
notes: Called 'IgG1', from a camel phage library, expressed in IPTG-induced supernatant with a C-terminal His-tag; also called anti-CLL1 IgG1
B2: AS141553 (antibody, V domains shown)
VH: QVQLVESGGGLVQPGGSLRLSCAASGFTFSSVDMTWVRQAPGKGLEWVSTINTGSGSTYYADSVKGRFTISRDNAKNTLYLQMNSLKTEDTAVYYCATDLAGGGAWFTAPFHYWGQGTQVTISS
VL: SYELTQPSAVSVSLGETARITCQGGNVGYYYASWYQQKPGQAPVLVIYEDSERPSGIPERFSGSSSGGTATLTISGAQAEDEADYYCQSADSSGYNAAVFGGGTHLTVL
notes: as for B1
B3: AS141701 (antibody, V domains shown)
VH: QVQLVQSGGGLVQPGGSLRLSCAASGFTFSVYAMSWVRQAPGKGLEWVSAIKAANSDGDNTYYVDSVKGRFTISRDNAKNTLYLQLNSLKTEDTAIYYCAKAMYECSSGSWCPLGDALDAWGQGTLVTVSS
VL: B2 VL with Y2S, G28R, Y29S, Y30S, A32V, A90G, S92N, G94A, N96S
notes: as for B1
B4: AS138658 (antibody, V domains shown)
VH: QVQLVQSGGSLRLSCAASGFTFSSYDMSWVRQAPGKGLEWVSTINSGGETTYYRDSVKGRFTISRDNAKNTLYLQLNSLKTEDTAMYYCAKGGGWEYYGMDYWGKGTLVTISS
VL: SYELTQPSAVSVSLGQTARITCQGGNLGSSYAYWYQQKPGQAPVLVIYADDSRPSGIPERFSGSSSGGTATLTISGAQAEDEADYYCQSYDSSSYDIVFGGGTHLTVL
notes: as for B1
B5: AS141286 (antibody, V domains shown)
VH: QVQLVQSGGGLVQPGGSLRLSCAASRFPDGSYYMSWVRQGPGKGLEWVSSIYTGGDSTYYADSVKGRFTISKDNAKNALYLQMNSLKPEDTAVYYCAADPGGRYGPHEYNYWGQGTQVTVSS
VL: B4 VL with Y2S, Q16E, L27I, S30N, Y33N, A49G, Y90A, S94G, D96N, I97A
notes: as for B1
B6: AS138628 (antibody, V domains shown)
VH: QVQLVQSGGGLVQPGGSLRLSCASSGFTFSSYTMSWVRQAPGKGLEWVSGFNSYGSTYYADSVKGRFTISRDNAKNTLYLQLNSLKTEDTAMYYCARGLVDFDYWGQGTQVTVSS
VL: QSVLTQPSSVSGTPGQTVTISCTGTSNDVGGYNYVSWYQQLPGTAPKLLIYQVNKRASGIPDRFSGSKSGNTASMTISGLQSADEADYYCASYRSTGNAVFGGGTHLTVL
notes: as for B1
B7: AS141297 (antibody, V domains shown)
VH: QVQLVQSGGGLVQPGGSLRLSCAASGFTFSSYGMIWVRQAPGKGLEWVSAANSGGGTTYYADSVKGRFTISRDNAKNTLYLQLNSLKTEDTAMYYCVKDLYIDGGTWSGLGLYLEVWGQGTLVTVSS
VL: SYELTQPSAVSVSLGETARITCQGGDFGTYYASWYQQKPGQAPVLVIYEDSERPSGIPERFSGSSSGGTATLTISGAQAEDEADYYCQSADSSVNVVFGGGTHLTVL
notes: as for B1
B8: AS138943 (antibody, V domains shown)
VH: AVQLVESGGGLVQPGGSLRLSCTASGFNFGLYAMSWVRQAPGKGLEWVSGINGGGGLTYYPDSMKGRFTISRDVAKNTLYLELNSLKIEDTAMYYCAKDPDMWTAFPNALDAWGQGTLVTVSS
VL: SYELTQPSAVSVSLGETARITCQGGNIGINYANWYQQKPGQAPVLVIYGDDRRPSGIPERFSGSISGGTATLTISGAQAEDEADYYCQSADSSPYVVFGGGTHLTVL
notes: as for B1
B9: AS138993 (antibody, V domains shown)
VH: QVQLQESGGDLVQPGGSLRLSCAASGFTFSSYDMTWVRQAPGKGLEWVSTINSGGGVTYYTDSVKGRFTISRDNAKNTLYLQMNSLKPEDTAMYYCAADLSWYHALDAWGQGTLVTVSS
VL: SSELTQPAAVSVSLGETARITCQGGNFGSYYASWYQQKPGQAPVLVIHANDNRPSGIPERFSGSSSGGTVTLTISGAQAEDEADYYCQSYDSSANAVVFGGGTHLTVL
notes: as for B1
B10: AS141522 (antibody, V domains shown)
VH: QVQLVQSGGGLVQPGGSLRLSCAASGFTFGDYIMIWVRQAPGKGLEWVSAINSGGDSTYYADSVKGRFTISRDNAKNTLYLQLNSLKTQDTAIYYCAKDREAYYGSFYGGSGFDYWGQGTQVTISS
VL: SSELTQPSAVSVSLGETARITCQGGNVGSSYASWYQQKPGQAPVLVIYEDSERPSGIPERFSGSSSGGTATLTISRAQAEDEADYYCQSADRSGYNAVFGGGTHLTVL
notes: as for B1
B11: AS141641 (antibody, V domains shown)
VH: AVQLVESGGGLVQPGGSLRLSCAASGFTFSGYPMSWVRQAPGKALEWVSTINNGGGSTYYADSVKGRFTISRDNAKNTLYLQLNSLKTEDTAMYYCAKRHIPSSYCSDGYCYAAGEDYGMDYWGKGTLVTISS
VL: B10 VL with R76G, R92S
notes: as for B1
B12: AS141819 (antibody, V domains shown)
VH: EVQLVQSGGGLVQPGGSLRLSCATSGFTFSNNWMHWVRQAPGKGLEWVSSINTGDGSTSSADSVKGRFTISRDNTKNILYLQMNSLKSEDTALYYCAKELDYELGKGPHEYNYWGQGTQVTVSS
VL: SYELTQPSAVSVSLGETARITCQGGNIGSNYANWYQQKPDQAPVLVIYGDDSRPSGIPERFSGSSSGGTATLTISGAQAEDETDYYCQSADSSGYKAVFGGGTHLTVL
notes: as for B1
B13: AS141330 (antibody, V domains shown)
VH: QVKLEQPGGSLRLSCAASGFTFSDYDMTWVRQAPGKGLEWISTITGGGESTYYRDSVKGRATISRDNAKNTLYLQLNSLKTEDTAMYYCARGGGWEYYGMNYWGKGTLVTISS
VL: B10 VL with N26K, S30N, E49G, S51D, E52S, R76G, A90Y, R92S
notes: as for B1

Target: T1, recombinant human CLL1 extracellular …
Assay: SPR (BIACORE T200), IgG1 on recombinant human CLL1; column KD, unit inferred
Experimental: (§1) The unique clones were grown in 2YT medium and induced by IPTG for IgG1 expression in the supernatant. The supernatants of unique binders were analyzed for their ability to bind to a CLL1-expressing HEK293/huCLL1 cell line and cancer cell line AMLL193 using a FACS assay. Affinities of selected binders in supernatants to recombinant human and cynomolgus monkey CLL1 proteins were determined by surface plasmon resonance (SPR) on a BIACORE® T200 instrument. The dissociation phase was used to calculate the kd values for each IgG1.

| Binder | Kd [nM] |
| --- | --- |
| B1 | 2.3 |
| B2 | 3.5 |
| B3 | 2.8 |
| B4 | 21 |
| B5 | 1.2 |
| B6 | 43 |
| B7 | 0.54 |
| B8 | 39 |
| B9 | 13 |
| B10 | 0.37 |
| B11 | 0.28 |
| B12 | 11 |

Target: T1, recombinant human CLL1 extracellular …
Assay: SPR (BIACORE T200), supernatants on recombinant human CLL1
Experimental: as §1

| Binder | binding result |
| --- | --- |
| B13 | binds |
